Tests used:
[1] = target: T1, Erk1, P27361
T1 chain: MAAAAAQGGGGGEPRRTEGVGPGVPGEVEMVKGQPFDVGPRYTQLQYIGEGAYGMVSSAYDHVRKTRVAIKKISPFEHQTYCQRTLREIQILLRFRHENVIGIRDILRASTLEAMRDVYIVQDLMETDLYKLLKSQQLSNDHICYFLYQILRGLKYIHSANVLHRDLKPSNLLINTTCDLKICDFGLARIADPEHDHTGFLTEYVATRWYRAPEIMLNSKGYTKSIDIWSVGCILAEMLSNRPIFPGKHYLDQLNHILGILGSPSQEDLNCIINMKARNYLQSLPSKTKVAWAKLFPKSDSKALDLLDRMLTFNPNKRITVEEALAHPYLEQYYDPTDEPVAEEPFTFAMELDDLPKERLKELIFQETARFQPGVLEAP

[2] = target: Erk2, P28482
Erk2, P28482, sequence (P28482 whole entry): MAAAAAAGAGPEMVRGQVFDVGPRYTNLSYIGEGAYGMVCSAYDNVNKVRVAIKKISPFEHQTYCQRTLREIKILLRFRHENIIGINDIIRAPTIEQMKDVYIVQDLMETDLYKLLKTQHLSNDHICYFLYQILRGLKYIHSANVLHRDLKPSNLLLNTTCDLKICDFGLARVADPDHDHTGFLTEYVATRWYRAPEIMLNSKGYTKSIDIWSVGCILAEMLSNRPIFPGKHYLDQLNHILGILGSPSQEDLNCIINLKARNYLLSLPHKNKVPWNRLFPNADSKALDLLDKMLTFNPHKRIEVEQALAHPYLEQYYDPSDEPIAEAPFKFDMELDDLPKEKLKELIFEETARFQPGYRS

B1: Flag-Rab2A (protein)
chain: MAYAYLFKYIIIGDTGVGKSCLLLQFTDKRFQPVHDLTIGVEFGARMITIDGKQIKLQIWDTAGQESFRSITRSYYRGAAGALLVYDITRRDTFNHLTTWLEDARQHSNSNMVIMLIGNKSDLESRREVKKEEGEAFAREHGLIFMETSAKTASNVEEAFINTAKEIYEKIQEGVFDINNEANGIKIGPQHAATNATHAGNQGGQQAGGGCC
[1]
  Erk1/2 phosphorylation: Flag-Rab2A expression restored Erk1/2 phosphorylation in a dose-dependent manner
[2]
  Erk1/2 phosphorylation: Flag-Rab2A expression restored Erk1/2 phosphorylation in a dose-dependent manner

From patent US20170112792
